Data reported in the supplement of paper PMC12042874.
± gives the uncertainty stated by the source.

Assay: amyloid nucleation score (Sup35N fusion, yeast selection) (log enrichment); library NNK3; higher = more nucleation; inactive = no reads after selection
Summary of the method: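 The nucleation score, computed with DiMSum, is the log enrichment of output over input reads, centred on the mode score of non-aggregating sequences. Sequences with under 100 input reads were dropped. Reads were generated by Illumina sequencing of plasmid inserts from psi-negative yeast with Sup35N fused to peptides of 20 random codons, induced with 100 μM copper sulfate for 24 hours and grown 7 days at 30°C on medium lacking adenine and uracil.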

Amyloid nucleation score, 1.52 ± 0.14:
WSSFPFCSRVYVQTWIDLTN

Amyloid nucleation score, -0.333 ± 0.9:
VYVAYALFRRD

Amyloid nucleation score, -0.395 ± 0.46:
YATACGMILQKVVGKLTLLA

Amyloid nucleation score, 0.988 ± 0.12:
VVDIKNLYTCLTFCHKYGLN

Amyloid nucleation score, 0.312 ± 0.32:
WGLGAINIDMRRRLDPRCKR

Amyloid nucleation score, 1.85 ± 0.085:
YAGQDEFFMVTVYIKPNDLC

Amyloid nucleation score, 0.926 ± 0.14:
WCSSWSRILTQVACVRHRKW

Amyloid nucleation score, 1.64 ± 0.093:
VWNFPNILCFGWIFRA

Amyloid nucleation score, 0.651 ± 0.32:
VWVTVRCLNYRPSYMPYRTR

Amyloid nucleation score, 2.66 ± 0.075:
WVTIESNLCIVSFNRSRSQK

Amyloid nucleation score, -0.538 ± 0.75:
WMRVSCDTRGYSSFQAY

Amyloid nucleation score, 0.617 ± 0.2:
WQVTCDFTFNLRFLFGFGDC

Amyloid nucleation score, 1.18 ± 0.1:
WMYHMHENYN

Amyloid nucleation score, inactive:
VTMFFLFHMQLYFSSKILGF
VTQSQRKASFMVCSYSTITR
VTSYYSHISYVTL
VTVSAQPAIK
VVCGANHLRIFFVNRVMWD
VVDCLFLSEPCYVGFRWVIE
VVDNRNLSTCFYFRCVDWCQ
VVEIMDLS
VVFENLDRAFVYRRLDPIRC
VVFGHAFYVTSHKTVLCSFG
VVIHRSSSISGT
VVKAFYRARELGFRAGLRTD
VVLCLFFLLDIFSTGKVYIK
VVLDSVVWGFDELSRLMSGA
VVMKGTRMVKVKERGSGKDY
VVRFFLRTRTEGGYTWVLK
VVRYDEGVVLNSRFLLSPGW
VVSVLLDTI
VVTVARERYIVF
VVTVGVMT
VVWLSNSEWLRYLKDG
VWFLLPRGLRCV
VWGMMFNMCYRELCLAMTLF
VWILCNRPKRRMIYLTQCRM
VWKMRDTKHMGLLWLLWFIE
VWLRGDVLGMTLHGCSIVTR
VWVFYWDKLRKF
VWVLGQLWFF
VWVLSA
VWVTFMRAVMTLELCLERMR
VYAEKMMVSSHLCGLRRRFK
VYCLRWKLYMLNEVS
VYLWKYRPQYPRVA
VYMLYQFSCPGVDNWVCTES
VYNLVDIESEPKVVFNGLFL
VYNRVHNCGMKVANYDTRDK
VYQSTSKF
VYRWVC
VYSFTAKHRYSWFVCNDGVK
VYSTSDAEVIVSVSRRGDFA
VYWHVWVALSCFMPANIGVV
VYWTEWTCMDIDGIQFLVNV
WAFHFGCCNDGMVR
WAIWAYRTLVESMWGTKIGK
WANMQETFWRMWTRPVLTCG
WAPACYTDSCVMIGGEPYRT
WAQLRSTWTSSKAYWLTA
WCFCGWMYIISFLSYKKHIM
WDAPMSNVDRL
WDCVNSAHWVLDMFSNSYVS
WDHTA
WDNWSTIRWTVYALSRKSAR
WEGYT
WENCKFWRTLPISVHEGHLD
WFFILD
WFMRFTLSLVTGLVNGSAWS
WFVSSWKNSHLKCGL
WFYMSRDGYEAVKRLTKLGK
WFYVDLFCGWTRDVNAASCL
WGFVW
WGRGNAAMYGVFRSGNLLVI
WGSRHKIVCELGLPFYVLEG
WHMWVLKYIFAGLVHSSPWG
WIFRFAYVVHDAWFSENRYP
WIKVDTPFEGFVRYAIDSGV
WILFCKNGAVTNLLVWECLC
WIVVENW
WKEVGHGRSASPSALK
WKRKRRLRELGITKVILRVL
WLCCNKTETPQSTRRWQEDD
WLCPYARFIRNRSLLFCMFW
WLDRVY
WLFRRVGMVTHAWMYWFKSR
WLFYLT
WLGPYVLHSSAGSGMVDNGT
WLHRTKLWPYFYVKLFPRDK
WLIKYPGYW
WLSFFRWR
WLVRMN
WLVYVVLRM
WLWDVDDYGNPLWVRHASVA
WMFLDTSGDIMPRGLTDYLE
WNCGSPPR
WNESAGGFRYFPEDAKCDRA
WNFNRVYHFLTIEMF
WNHLDERANELCCN
WNKGPQTQ
WNLLWLLFFLCLCHCGIMWK
WNMIFTQPNNQPIVVRDFVD
WNVLPATMMRFIRDMTGH
WPANGMSRLVNRL
WPLYGLDWNPLGFNLRWYKF
WPMMATLQYHDLLLAFLFRK
WQICSGA
WQLEKIDDDYLRVTVDEPSE
WQTMPGVRDGCAECEIYWG
WQTTDRLFSVKKSALLVGFC
WREAICLLICTIITVPWVNW
WRFQQQAFRYNWPWVILLLV
WRSASGVD
WRVHHFGWAGEY
WRYWDSFFL
WSCNISYTLLSMGRRLYSRR
WSDHMMRALERLPECINKLL
WSGCMWSCARGYGSFPSGPL
WSIRYVLICIGVSKIVCRPL
WSKHVCLFENSKSPHFSEDS
WSLCGDVRTQHINHVSVQVS
WSLNWLMTFGLIYRQFSHLY
WSPKTLLM
WSRSSV
WSVITT
WSYHATTPHLRRYRLERSSN
WTIAVMVSVGKYMTGTAT
WTRMCSSVRTVR
WTVGCREWLSLCCSAKDTDA
WVGLVPYPMVAQEVFNHQD
WVLLKSWQNCLLGELVSEVQ
WVPAGCKSVMVGGAG
WVQPSYRPSCVLYRSNNNNR
WWHVIMYTGHKCNLSCDSVG
WWRDGDIRCKTSLNLGKRSF
WYALYAKYASTPGFCACLRG
WYCVAEYGHFKCPSRKYVFG
WYFPTQ
WYGVVDVDW
WYSNLMCTWISDDKTWQRIR
WYWSSNPSGTDVGIDGVRIS
YAPFWS
YASSCDVKLMQSSPLAYEVD
YCCIFRRFNGKNFFSCRG
YCDLY
YCGLVHVSHLGVGREIGRRV

Amyloid nucleation score, 1.42 ± 0.11:
WMDRLFVSVTAVWRQPDVGI

Amyloid nucleation score, 0.381 ± 0.75:
WVCMVNSRRSCIRNS

Amyloid nucleation score, 0.101 ± 0.45:
WHKKLGYTSFNRKLGFMASG

Amyloid nucleation score, 1.09 ± 0.12:
WCQCRKLFWVYAHGEHFSSC

Amyloid nucleation score, 1.82 ± 0.1:
VVNILW

Amyloid nucleation score, -0.548 ± 1:
WSISSECGERVFRVRTCH

Amyloid nucleation score, -0.507 ± 0.98:
WYTVRSKYANHVNDRHSRRW

Amyloid nucleation score, 2.75 ± 0.069:
VVCELCGSYYYIHCWDCNAS

Amyloid nucleation score, 0.693 ± 0.15:
VWVIVKTNLLLVAGQGGAFG

Amyloid nucleation score, -0.137 ± 0.78:
YAETPRFIRFY

Amyloid nucleation score, 1.91 ± 0.096:
WLSYLLNG

Amyloid nucleation score, 0.062 ± 0.59:
VYSGESNQIYIMNWPVTSKQ

Amyloid nucleation score, -0.003 ± 0.81:
VVILHCKTYAMASRWYGYRG
